Numbering of substitutions follows the chain as printed. Numbers in names are those of the source.

Here are results for 36 molecules from patent US20230256092A1, “COMBINED USE OF ANTI-CCR8 ANTIBODY AND CHEMOTHERAPEUTIC AGENT” (Shionogi & Co., Ltd., priority 2020, published 2023).

To fix the notation:
B1: h10A11 (IGKV4-1/IGHV3-73 T31A) (antibody, name in Kabat numbering, V domains shown)
VH: EVQLVESGGGLVQPGGSLKLSCAASGFAFNAYALYWVRQASGKGLEWVGRIRSKSNNYATYYADSVKDRFTISRDDSKNTAYLQMNSLKTEDTAVYYCTRARFYYSDYGYAMDYWGQGTLVTVSS
VL: DIVMTQSPDSLAVSLGERATINCRSSKSLLHSNGNTYLYWYQQKPGQPPKLLIYRMSNLASGVPDRFSGSGSGTDFTLTISSLQAEDVAVYYCMQHLEYPLTFGQGTKLEIKR
B2: h10A11 (IGKV4-1/IGHV3-73 Y102F) (antibody, name in Kabat numbering, V domains shown)
VH: B1 VH with A31T, Y114F
VL: B1 VL
B3: h10A11 (IGKV4-1/IGHV3-73 Y58F) (antibody, name in Kabat numbering, V domains shown)
VH: B1 VH with A31T, Y61F
VL: B1 VL
B4: h10A11 (IGKV4-1/IGHV3-73 T57S) (antibody, name in Kabat numbering, V domains shown)
VH: B1 VH with A31T, T60S
VL: B1 VL
B5: h10A11 (IGKV4-1/IGHV3-73 S62T) (antibody, name in Kabat numbering, V domains shown)
VH: B1 VH with A31T, S65T
VL: B1 VL
B6: h10A11 (IGKV4-1/IGHV3-73 S100T) (antibody, name in Kabat numbering, V domains shown)
VH: B1 VH with A31T, S106T
VL: B1 VL
B7: h10A11 (IGKV4-1/IGHV3-73 S52aT) (antibody, name in Kabat numbering, V domains shown)
VH: B1 VH with A31T, S53T
VL: B1 VL
B8: h10A11 (IGKV4-1/IGHV3-73 N53Q) (antibody, name in Kabat numbering, V domains shown)
VH: B1 VH with A31T, N56Q
VL: B1 VL
B9: h10A11 (IGKV4-1/IGHV3-73 A33V) (antibody, name in Kabat numbering, V domains shown)
VH: B1 VH with A31T, A33V
VL: B1 VL
B10: h10A11 (IGKV4-1/IGHV3-73 A56V) (antibody, name in Kabat numbering, V domains shown)
VH: B1 VH with A31T, A59V
VL: B1 VL
B11: h10A11 (IGKV4-1/IGHV3-73 D65E) (antibody, name in Kabat numbering, V domains shown)
VH: B1 VH with A31T, D68E
VL: B1 VL
B12: h10A11 (IGKV4-1/IGHV3-73 D100aE) (antibody, name in Kabat numbering, V domains shown)
VH: B1 VH with A31T, D107E
VL: B1 VL
B13: h10A11 (IGKV4-1/IGHV3-73 A100eV) (antibody, name in Kabat numbering, V domains shown)
VH: B1 VH with A31T, A111V
VL: B1 VL
B14: h10A11 (IGKV4-1/IGHV3-73 S52cT) (antibody, name in Kabat numbering, V domains shown)
VH: B1 VH with A31T, S55T
VL: B1 VL
B15: h10A11 (IGKV4-1/IGHV3-73 D101E) (antibody, name in Kabat numbering, V domains shown)
VH: B1 VH with A31T, D113E
VL: B1 VL
B16: h10A11 (IGKV4-1/IGHV3-73 V63L) (antibody, name in Kabat numbering, V domains shown)
VH: B1 VH with A31T, V66L
VL: B1 VL
B17: h10A11 (IGKV4-1/IGHV3-73 Y32F) (antibody, name in Kabat numbering, V domains shown)
VH: B1 VH with A31T, Y32F
VL: B1 VL
B18: h10A11 (IGKV4-1/IGHV3-73 Y59F) (antibody, name in Kabat numbering, V domains shown)
VH: B1 VH with A31T, Y62F
VL: B1 VL
B19: h10A11 (IGKV4-1/IGHV3-73 Y100dF) (antibody, name in Kabat numbering, V domains shown)
VH: B1 VH with A31T, Y110F
VL: B1 VL
B20: h10A11 (IGKV4-1/IGHV3-73 R96K) (antibody, name in Kabat numbering, V domains shown)
VH: B1 VH with A31T, R102K
VL: B1 VL
B21: h10A11 (IGKV4-1/IGHV3-73 Y99F) (antibody, name in Kabat numbering, V domains shown)
VH: B1 VH with A31T, Y105F
VL: B1 VL
B22: h10A11 (IGKV4-1/IGHV3-73 M100fL) (antibody, name in Kabat numbering, V domains shown)
VH: B1 VH with A31T, M112L
VL: B1 VL
B23: h10A11 (IGKV4-1/IGHV3-73 R50K) (antibody, name in Kabat numbering, V domains shown)
VH: B1 VH with A31T, R50K
VL: B1 VL
B24: h10A11 (IGKV4-1/IGHV3-73 Y35F) (antibody, name in Kabat numbering, V domains shown)
VH: B1 VH with A31T, Y35F
VL: B1 VL
B25: h10A11 (IGKV4-1/IGHV3-73 R52K) (antibody, name in Kabat numbering, V domains shown)
VH: B1 VH with A31T, R52K
VL: B1 VL
B26: h10A11 (IGKV4-1/IGHV3-73 L34I) (antibody, name in Kabat numbering, V domains shown)
VH: B1 VH with A31T, L34I
VL: B1 VL
B27: h10A11 (IGKV4-1/IGHV3-73 I51L) (antibody, name in Kabat numbering, V domains shown)
VH: B1 VH with A31T, I51L
VL: B1 VL
B28: h10A11 (IGKV4-1/IGHV3-73 Y98F) (antibody, name in Kabat numbering, V domains shown)
VH: B1 VH with A31T, Y104F
VL: B1 VL
B29: h10A11 (IGKV4-1/IGHV3-73 K64R) (antibody, name in Kabat numbering, V domains shown)
VH: B1 VH with A31T, K67R
VL: B1 VL
B30: h10A11 (IGKV4-1/IGHV3-73 Y55F) (antibody, name in Kabat numbering, V domains shown)
VH: B1 VH with A31T, Y58F
VL: B1 VL
B31: h10A11 (IGKV4-1/IGHV3-73 K52bR) (antibody, name in Kabat numbering, V domains shown)
VH: B1 VH with A31T, K54R
VL: B1 VL
B32: h10A11 (IGKV4-1/IGHV3-73 G100cA) (antibody, name in Kabat numbering, V domains shown)
VH: B1 VH with A31T, G109A
VL: B1 VL
B33: h10A11 (IGKV4-1/IGHV3-73 A60V) (antibody, name in Kabat numbering, V domains shown)
VH: B1 VH with A31T, A63V
VL: B1 VL
B34: h10A11 (IGKV4-1/IGHV3-73 D61E) (antibody, name in Kabat numbering, V domains shown)
VH: B1 VH with A31T, D64E
VL: B1 VL
B35: h10A11 (IGKV4-1/IGHV3-73 F97L) (antibody, name in Kabat numbering, V domains shown)
VH: B1 VH with A31T, F103L
VL: B1 VL
B36: h10A11 (IGKV4-1/IGHV3-73 Y100bF) (antibody, name in Kabat numbering, V domains shown)
VH: B1 VH with A31T, Y108F
VL: B1 VL

This test concerns the target human CCR8 (human) (UniProt P51685). The test is described as follows: cell-based or functional assay.
Take B1: the IC50 ratio (WT IC50/mutant IC50) was determined as 0.17.
The same measure, in the same setting: next, B2: 0.99; B3: 0.5; B4: 0.49.
Regarding B5, the IC50 ratio (WT IC50/mutant IC50) was found to be 1.6.
The same measure, in the same setting: next, B6: 0.64.
For B7, the IC50 ratio (WT IC50/mutant IC50) stood at 0.22.
For B8, the IC50 ratio (WT IC50/mutant IC50) was 0.03.
Regarding B9, the IC50 (n.d. = IC50 of the mutant is 10 nM or more) was greater than 10 nM.
For B10, the IC50 ratio (WT IC50/mutant IC50) was found to be 0.55.
In the case of B11, the IC50 ratio (WT IC50/mutant IC50) came to 1.3.
Take B12: the IC50 ratio (WT IC50/mutant IC50) worked out at 0.3.
In the case of B13, the IC50 ratio (WT IC50/mutant IC50) was 0.49.
As for B14, the IC50 ratio (WT IC50/mutant IC50) came out at 0.53.
Consider B15, for which the IC50 (n.d. = IC50 of the mutant is 10 nM or more) was greater than 10 nM.
As to B16, the IC50 ratio (WT IC50/mutant IC50) was 0.56.
As to B17, the IC50 ratio (WT IC50/mutant IC50) was 0.44.
For B18, the IC50 ratio (WT IC50/mutant IC50) came to 0.03.
On the same count and under the same terms, next, B19: 0.55.
B20 showed an IC50 (n.d. = IC50 of the mutant is 10 nM or more) greater than 10 nM.
Turning to B21, the IC50 ratio (WT IC50/mutant IC50) was determined as 0.8.
For B22, the IC50 ratio (WT IC50/mutant IC50) stood at 0.72.
For the molecule B23, the IC50 ratio (WT IC50/mutant IC50) came to 0.12.
The molecule B24 registered an IC50 (n.d. = IC50 of the mutant is 10 nM or more) greater than 10 nM.
In the case of B25, the IC50 (n.d. = IC50 of the mutant is 10 nM or more) is greater than 10 nM.
On to B26, for which the IC50 ratio (WT IC50/mutant IC50) amounted to 0.43.
Turning to B27, the IC50 ratio (WT IC50/mutant IC50) stood at 0.22.
Regarding B28, the IC50 ratio (WT IC50/mutant IC50) worked out at 0.07.
As to B29, the IC50 ratio (WT IC50/mutant IC50) worked out at 0.54.
Still for that read-out and setting: next, B30: 0.47.
Take B31: the IC50 ratio (WT IC50/mutant IC50) stood at 0.47.
Regarding B32, the IC50 ratio (WT IC50/mutant IC50) worked out at 0.07.
On the same count and under the same terms, then B33, with 0.67; and B34, with 0.25.
B35 displayed an IC50 (n.d. = IC50 of the mutant is 10 nM or more) greater than 10 nM.
As for B36, the IC50 ratio (WT IC50/mutant IC50) was found to be 0.75.
